# Results: the supplement of paper PMC12636428
# System: Saccharomyces cerevisiae
# Assay: transcriptional activation domain activity (GFP:mCherry ratio, weighted mean of sorted bins, harmonized to initial dataset scale) (arbitrary fluorescence ratio units); higher = stronger transcriptional activation
# Conditions: beta-estradiol 1 µM; induction time 4 h
# Outline: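 After a 1:5 dilution into SC with 1 uM beta-estradiol and 4 hours at 30 °C, yeast diploids carrying a GFP reporter and URA3-integrated barcoded tiles were sorted into 8 bins by GFP:mCherry ratio. The tiles were fused to an estradiol-inducible synthetic transcription factor. Barcodes were sequenced, tiles below 50 reads were discarded, and activation activity was taken as the read-weighted mean of bin median fluorescence, averaged across barcodes and linearly mapped onto the initial dataset scale.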
row,Sequence,transcriptional activation domain activity
1,IHILHGTLQTIIAHSRAPHFLHVPCMRLPLLLLLIPPLYFEYCLLLLSPFFFA,51200
2,STIHNLAELVFLEELCGFCCFSMRFVVFLDLFGTIILPATCVYIGYLIYVIAT,44600
3,VLMLIVSNLRLMIENFKKYGVLICLSCHDYRRQDVIYGSILYLLVPCHLFVAY,41900
4,MCPVLFCFYSPMILIFFFFSSFSYLLYIHTILSWFVCLLFVCYYECFLLLSFS,44700
5,MLLPVSYSWLPLLFIPTNASPAFIFLFFVCTYFLNRPCVYCSFLLLILFVTSC,42200
6,FFRRLLLEIGWAHPLLVLCSATLLEPAHSRDHYVSKVFSHLSPEHAHVVGEIA,47500
7,LWELLLNILKENGAKEKCILPCIVDFLPKNLVLVHCIHAYLHFRILVGLQCMT,33700
8,NAIISNLMLGMLLFCGSLYLLITFLPILSSDCPYSTPMSVPWWRILRALGAVG,37900
9,RGAKEGARGGGENEKNEGDTGRSRAEGTRETESGAGASQQRAAREGTAGTQGR,< 6570
10,ELLNAIVLVHMKLETGDLPPIVSRHIGRFAEQVLSKTPIHLIVTTSFRTLHKI,73400
11,VLSKKTIDKVLRLIRKLDWNDPQVVQALHKVFSKVWKIKFSHISLLAMLIYDL,92000
12,MCLLGDGRHPEFFYFLFFIPFDFLLHLLFYPRAFSRYLFIWMGCLNCFYFGLA,56200
13,MILFFFAHRGLFLVYSASFCLCCDCLYFFLVYTFFFTLHNPFFLVPLFFSIIL,62900
14,EERRRGRRRRRKGGGEGGRGRKREKEREERERKGEKKEGERKGKGEEKGREKK,20300
15,GPLSDEKSVKVSTFSELIGNDWQSMNFDLENNSREVTLNATSLLNENRLNQDS,48600
16,RWIRVRKHMVLAATLVEPFTESVVLSIICASSLKYLFGVWLWISICVHFALWA,48100
17,AEEEEDAEDEVVEEKIPAKRGRKPRGEKIEEVSSPAAAAPVRGKKAAAAAAKP,24200
18,YLVRHRGEIFDNFQARKEQLLCPVYIRWLRLIWQILLSCCHVIFKSHPWMVFM,57700
19,MSHLLSSFLYDSLSFCFILLFGFDVILFPLFKYLWTTSSFYMFWMPDHLTLAV,73900
20,GGGKGHEDGYMREVRVVPAYLLVEIINRKENRKERVGAKLLLTRACVLGLYTL,45400
21,MPAIFFGSQIGGETLQPLSYTGLPWKLLIQDILLFLRWCYYLPNIVIPLWPWP,67400
22,VSRLHAKIEYEEEEERFVLVVIGRNGAWVDGVWSGASSRVPLGERSQIQIASR,65500
23,SFSSIIILLALCLVLLAVFFYFPFFFCLFCPYVLCCHPIFPPTLSQVSILAYY,44700
24,MTVMTLCFFGSSFGPWAGAWFCCLLLLLLLLVIAVSLFLHVCFAWEFWFCLCY,39500
25,MSNWLWIFLLLFFAFFCRSFTSCFIRLSVHIYTHCCMCSLGGLLVYLARSLFF,44200
26,NLNSLNQSEEEGHIGRWPPLGYEAVSAEQKSAVQLRESQAGASISNNMNFKAN,48200
27,MSIAWLCYSSALCQGLRNTIFPSLNIFLMDPLSEWTARQWLFYLVWLLTIVWK,52800
28,RHLAEAGLGIAAAGAAKELYDHRRRSRSRSSDSSRSRSRSQSHTGRHVAAAAL,45800

row,Sequence,transcriptional activation domain activity
1,ANVSATAAPIVAVKRGRGRPRKDPSETQAAKKAAAAAVAPDGAKRGRGRPRLV,45200
2,NMMLYLLKGLPALSMSDPASITRFIKLVDELLYYAYEAERRSPLPTSHPNLVR,65700
3,MHFFSFFFLCFYFYFLSSLLGSMDYTALYFPFFFCSNYRRCYMCFLVEPFFFL,78500
4,LHNRFGAFTPSKTPKSVFVVTYLGRVFITIMFCLVVVIAALTIKYSADSNNLY,9590
5,FHYGGRADVTSVFTVEARTSLTVDDFRKRILLAWANLRLHHVLLMSTVLRDSA,65000
6,GLHFERRLFHLLFSTVCISICFCLLVFNLLIQNYMKKADQKEGMAAFAEKRKP,28000
7,LLCKKVVAFFQLLSESHVSGMRRLGVTQELLSLVTGLAHYLKLLIRICLQGAL,72100
8,TGAFGATANTGSAFGQRPAFGSPAPTGFGAAQPAATGFGGGGAFGAGANNTTS,22300
9,ENDGEEVEGEEKESSQGAGGLMGRFTKETDDVRLGASQNIGLVLQYLTSFIAC,17000
10,ENGRNLLRELLIFVAAWDLREEELYFKFMVKILESILVNGYLPYAYHAFREYD,62000
11,MISFVSIVSILLAKSAFLFYFLRQDSFLPNLVFCLCISLLLLLVCLLQWLLVC,53700
12,DTPFALHTLLIMHGHILLCENAKVSLDSSDTLNIFVPLVTVLINRLTNRKEYS,32800
13,HSLLRGDKETGVCVIEMTPFKQGIDSGAIYGKKTVLVVFCLVKLLLSQAVPES,28600
14,AAAKAKDNIKEEDEADELAPVKKTAKKRGPKAQDVDGEGAPKKKPRGRPAKKA,17000
15,VIYSHRYVFHKKKGLRHIHVLNGWYVLSRIIAVYVLQDFLGEGSSVVVIAFLR,58700
16,SKGAKKDAGPRGAVRRAKKKGGVEPEKKKREKDGGSREKSRSSSKKEKGGFER,15200
17,MFPGLQYTLLCIHLSCDFIICCRAFLPYYLCFSHYFPVLMCPVSPVLILVWFI,53600
18,GEVTEAEANGEAPKPEGEAAAEASPKPRKKKSPRKKKAAAPAEGEAAATEATA,19600
19,NNTNNASPATSTVSLQLPNLPDQNSLTPNAQNNTVTLRKGFHVLLVEDDAVSI,23700
20,MCINMYFWKVFFMWTLIFFGLSYIPLSFPGMSYFFLLQHEIFLIILGNHFLRF,42000
21,HLNGESSPQLVPHSHHQPHSDTDEEDWESIGAASLRNNSLAPNIDSVASSTNG,45100
22,LSILSSLSFSFLSSLSLSFFTLIPFLPLLLFLYSLYSHLFLLLSFILFPHPSL,65400
23,GKRGSRGRGRGKGGKKKGKGREGAEEGEGGSRGRGEGGGKTGEGGRESRRRGE,37600
24,LLQSSKEDIPFINANLAFPDDNSTNIQLQPFSESQSQNKFDYDMFFRDSSKEG,80700
25,SKVYLLKHFEGYIMGKLYGDYEYTFLDLQRTKGMHFVQKYLRMKHVIVFKLSH,58700
26,MRFWFLYLFLLFGIGWVGLALLYYYRIFCLFLCNIRILFLLVCFISTHSIIYS,46200
27,QLEGDADLFLVPNFYVLRRISHLATTTLLRQLEAFSIRTPVFGVLLWKSLVAI,49100
